The values below come from publication doi:10.1101/2024.09.02.610899.

pKd: −log10 of the molar value.

For this experiment, the target named is POTRA domains of Toc75 (Toc75-POTRA) (Chlamydomonas reinhardtii). The experiment in a line: SPR. Background: SPR reads the build-up and loss of mass on a sensor chip optically.

Usually pKd stands for the negative decadic logarithm of the Kd, by convention in mol/L. A higher pKd goes with a low Kd. Substance “Tic22 (recombinant, His-tagged) (natural protein)” showed a negative logarithm of the Kd (pKd) of 5.28.
